Here are results for two molecules from patent US6025146A, “Identification of M-CSF agonists and antagonists” (Chiron Corporation, priority 1995, dated 2000).

Changes are numbered by the printed parent chain. Names may count otherwise.

For data set [1], the system named is NFS-60 cells. As to the kind of experiment: Antibody neutralization of M-CSF dimers by 5H410 Mab in the NFS-60 bioassay. It counts as cell-based. As to conditions: serial dilution neutralization experiments. As to the method:
Fractionated products were analyzed on reducing SDS-PAGE and stained with Coomassie, according to the method of Laemmli, Nature […] 227:680-685 (1970). Biological activity was determined using the M-CSF dependent NFS-60 bioassay (See Example 10 below). Antibody neutralization experiments were carried out by pre-incubating approximately 5,000 units of M-CSF dimer with varying dilutions of the neutralizing M-CSF 5H410 Mab (made to refolded E. coli CΔ 150 M-CSFα dimer) prior to bioassay. (Halenbeck et al, Bio/Technology 7:710 (1989)
The biological activity of all three dimer species was neutralized to the same extent in serial dilution neutralization experiments using the 5H410 M-CSF Mab in the NFS-60 bioassay.

Data set [2] relates to NFS-60 cells. As to the kind of experiment: M-CSF dependent NFS-60 bioassay (MTT read-out). Type of data set: cell-based. As to the method:
Fractionated products were analyzed on reducing SDS-PAGE and stained with Coomassie, according to the method of Laemmli, Nature […] 227:680-685 (1970). Biological activity was determined using the M-CSF dependent NFS-60 bioassay (See Example 10 below). […] (Halenbeck et al, Bio/Technology 7:710 (1989)
The purified mutein dimers were subjected to bioassay using NFS-60 cells which is an M-CSF dependent cell line which forms colonies in the presence of active M-CSF. Standards and purified mutein samples were serially diluted 1:2 in RPMI media (10% fetal bovine serum) in a 50 microliter volume in 96-well microtiter plates. […] Plates were incubated at 37° C., 5% CO2 for 44 h. 5 mg/ml MTT dye was added to each sample and incubation continued for 4 h. 20% SDS was added to each sample. The plates were wrapped in foil and left overnight. The absorbance of each sample was read at 570 nm and compared to a standard of known M-CSF concentration.

Data set [3] deals with cell surface M-CSF receptor (NFS60 cell M-CSF receptors). Nature of the data set: NFS-60 receptor competition assay: displacement of 125I-M-CSF by radioligand displacement. It counts as binding. As to the method:
FIG. 7 illustrates the competitive binding of M-CSF and M-CSF muteins to NFS60 cell M-CSF receptors.
The plates were incubated at 4° C. for 20 hours and the cells were collected on glass-fiber filters. Maximum binding was measured in the absence of unlabeled M-CSF and non-specific binding was measured in the presence of 1000-fold greater concentration of unlabeled M-CSF (compared to labeled M-CSF). […] Results are expressed as percent displacement of radioactive M-CSF versus mutein concentration (FIG. 7).
Background: In a radioligand displacement assay an active substance lowers the binding of a labelled ligand.

B1: Chinese hamster ovary cell (CHO)-expressed M-CSF: "naturally refolded" M-CSF expressed in Chinese hamster ovary cells (protein, UniProt P09603 33-554, looked up)
Macrophage colony-stimulating …: EEVSEYCSHMIGSGHLQSLQRLIDSQMETSCQITFEFVDQEQLKDPVCYLKKAFLLVQDIMEDTMRFRDNTPNAIAIVQLQELSLRLKSCFTKDYEEHDKACVRTFYETPLQLLEKVKNVFNETKNLLDKDWNIFSKNCNNSFAECSSQDVVTKPDCNCLYPKAIPSSDPASVSPHQPLAPSMAPVAGLTWEDSEGTEGSSLLPGEQPLHTVDPGSAKQRPPRSTCQSFEPPETPVVKDSTIGGSPQPRPSVGAFNPGMEDILDSAMGTNWVPEEASGEASEIPVPQGTELSPSRPGGGSMQTEPARPSNFLSASSPLPASAKGQQPADVTGTALPRVGPVRPTGQDWNHTPQKTDHPSALLRDPPEPGSPRISSLRPQGLSNPSTLSAQPQLSRSHSSGSVLPLGELEGRRSTRDRRSPAEPEGGPASEGAARPLPRFNSVPLTDTGHERQSEGSFSPQLQESVFHLLVPSVILVLLAVGGLLFYRWRRRSHQEPQRADSPLEQPEGSPLTQDDRQVELPV
B1: the “neutralization of biological activity by 5H410 M-CSF Mab” value with NFS-60 cells [1] is listed as “neutralizes”.

B2: Q20A, V78K: double mutant of M-CSF altering solvent accessible residues in the central portion of helices A and C (protein, UniProt P09603 33-554, looked up, variant Q20A V78K)
Macrophage colony-stimulating …: B1 Macrophage colony-stimulating … with Q20A, V78K
Consider B2, for which the specific activity in the data set with NFS-60 cells [2] (purified refolded dimers, compared to a standard of known M-CSF concentration) was 1.4×10^7 U/mg. Besides, the “fold reduction in biological (specific) activity compared to parental M-CSF” value in the data set on NFS-60 cells [2] (relative to parental reference (homodimer or heterodimer)) is 8-10 fold. In addition, the “M-CSF receptor-binding ability (in words)” value in data set [3] is reported as “decreased”. For the same molecule, the “fold increase in IC50 / decrease in binding affinity compared to M-CSFα NΔ3CΔ158” value in data set [3] (relative to IC50 of about 17 pM for 158) is 5 fold.
